According to the DeepSol protein solubility set:

Assay: soluble on expression in E. coli; label from the status in PepcDB or PDB records

Sequence: MEDHKPRPCQPRPWLKEQKCPTGFWCHEGQSEHSFYCCPSSRKFANRCHLPPAVGYGKQRMRRFYFDWKTDACHELQYSGIGGNENIFMDYEQCERVCRGAGEPPILLPSNMKVLPKETTKDFKKMEKPEMEKKMVYPKEVAAPVSLQPPSLRTTKPADVHESFYTVSPQTSSVPHPTTLSTTHSKQKPTTTEAEIPEVFDPNPCSLSPDKGFPGSVTVNMWYYDPTSTTCSPFMYLGKGGNSNRFETSEECLETCGIGKPTRKSCELPPAIGNGPFNIPRYYFDRVTKKCERFFYSGRDGNDNRFYKKNKCERLCLRKKPKKKENIYEFTTTPSTPSVIYESTPLRIIQNLVPNYVTPTPTQSRITVEPWIERFTEKSSIYEYSTTPHPTLIYEPHGETLPTLNPPTTTTPSIVDHVFSSLMNTQQQKLVEFVHVPTDQKTTGETPRKFSSHETIPFGQVEQQPIPMNPFGSAKPTVNKFGMKVEPYQTTDYMLPPGYPSSSIYLPQPAYPEVKPNSSVILSSTQSQNNTSPQTIPASASVTNSATSTVVDTSSQFQIPYVSSPASATSNIFVGPIPPPSNSGSSSQAPDSSQSATNSSNSGSGESKIPNVGPIAPPSQLSQVGVFVTGSTSTSPVVSINFIKTENSVQQPTHYIVPSQSSPPPDPYVISNPIPTLSPTAGTPSFNIYPYPSLPPPTTTISPLPTLLPPNISYVTSPPDNNDSPCSRSIYGDATIMCENRQEICPMGTFCQIGQGQSICCPIMDEPPCEQAIEEGVGNVLLRRWYFDPATRLCQPFYYKGFKGNQNNFQSFDSCSRACGATNVCSGGSPQMSVHTHLLSCNFESDCPYSHDCIQSTPHNLCCPKTSHLVPESIPAPPFEPVQMPIPAPPAQVSQPQEQSSNMVIDFVPATHASNNLCGQPIDVGFGVLSEHRWAYSAGQCTSFLYSGHGGNMNNFLTRNDCMKTCQSPMPPPSSQCSQPAASGQGDQYLSRYFFSPEYRQCLHFIYSGEGGNQNNFDSLTDCLETCVANGIKFSSLANSPMSAVPPPPPTLMPSPPVTSSPFTFVPRNMCPQGDPLITVDGTPIQCDPSKAAKCPGDHVCTPRGNEAYCCPSPMNFCLQSRPPISVCSGPDFEPVREIRFTYDPLADRCVRFSFQNCRGAAFSPTGSLNNFVSNSQCNRLCCNQGYNLVYKRRLLMAMNDDPIVEDD
- soluble on expression in E. coli: not soluble

Sequence: MGSDKIHHHHHHMNLVAHAQNTEPFEGVMKWAITVDIVDSKVADSYQTEIQSEDNSEVNQAIKELEQQLKDPEMQEMLLENPTIKNSMLKKLQQLKAAQTTNQENSTNSIFPSALSIFLKNNNSFTKIDGGSMVKLTGNMLYLNTNKNTYFIKDKTSTYSVINDTARLNTNDSLIALIATTDTTMILDCICIKYILTTKENNEIKTSYIWITNDLPSMNSAAFRSLGFMDGNLHHEAFKEMKGIPMRIEIFEKGLKMNMEVSEISMELVADTYFTIPSNYRESPFGF
- soluble on expression in E. coli: not soluble

Sequence: MGSDKIHHHHHHMKPIDQITSWMQEALRPYFGLEPLSAEWDILTVRDGYFICFDGDTIRKRITATELNYQEEDVIIQTSEREVVLPRTARGKEKKLTYTSVSSVMADGIVFSAGIRTLNSGRYGYINVSNYRNSIRLPLPECRDLASKGEIVEWLQSYRERVPADYAHKLERLMHMKNRQHKTIPGDVFRVEIDLHTDGYVLVIGNLRQMQKDELFAEHSIWNDVMTMPLFVRPYLFRTTVRNPSLSEIVASPLSDKCWIVMDNAFLRGNYEYVGSKILAEEDILFPVGYGSSISAQKSDYRLSWGPNSISKASQDTGLKAGRSYMNNGAYSSVSADCFVDRGFPDWDKTLLNPEHLEAWEQVLAEFGFPPDTTYDAFAQRTDGMTRAAYLTYVAENKAYQRKGRAKKKGS
- soluble on expression in E. coli: not soluble

Sequence: MGSDKIHHHHHHMKILILRFSSIGDIVLTTPVIRCLKKQIPNAEIHFATKASFKSILENNPYIDKLHLLESSTASFIKQLKAERFDVVIDLHSNIRTKRIKWALKAKSFTFDKLNIRKWFYVNWKWKTMPAIHIVDRYLDTVKHLGVKNDNEGLDYFIPEKDIISRDSLPQKYAAGYVAIAIGAQHATKRLPEAKLIELIGKISHPIILLGGKDDTATAARLVAYFPDTKNILNACGTYNLNQSASIVHQCMYLYTHDTGLMHIGAALQKRIISIWGNTTPELGMYAYKTEHVNWQKEDLYCRPCSKIGYNSCPKKHFRCMNEQVLPVHEIESRWN
- soluble on expression in E. coli: not soluble

Sequence: VYAILISDIHVGSKEFCENAFIKFLEWLNGNVETKEEEEIVSRVKYLIIAGDVVDGVGVYPGQYADLTIPDIFDQYEALANLLSHVPKHITMFIAPGNHDAARQAIPQPEFYKEYAKPIYKLKNAVIISNPAVIRLHGRDFLIAHGRGIEDVVGSVPGLTHHKPGLPMVELLKMRHVAPMFGGKVPIAPDPEDLLVIEEVPDVVHMGHVHVYDAVVYRGVQLVNSATWQAQTEFQKMVNIVPTPAKVPVVDIDTAKVVKVLDFSGWC
- soluble on expression in E. coli: not soluble

Sequence: MGSDKIHHHHHHVSGPGLLPFRLTICGIDELPDHAAAGVSHVVTILDPQWPDPEHFALYPPHSRTIWRFHDIVNPQEGQAHPTMRDVEAILDYGTALKTETVEHLLIHCHMGISRSTATAIILMAQHNPGREAEAFTHLKAIRPFSWPNSRMVRMADDQLKRKGALVDAMRLHHHGVARRHPDKMAYLRTSERAAEVPPEE
- soluble on expression in E. coli: not soluble

Sequence: MRLIIVSGRSGSGKSTALNVLEDNGFYCIDNLPASLLPDLAQRALLHTELLQPQVAVSIDARNLPSQLQRFPELLQEVRDNHINCDVLYLDADDETLLKRFSETRRRHPLTTDTRSLAEAIGDESQLLGPIADLADLKLDTTSLNLYQLRDTIKLRLLNKPEPGTAFLVESFGFKRGMPVDADLVFDVRCLPNPYWKPELRDHSGLEPEVREYLAAQPDVEEMYQDIVGYLNKWLPRFAASNRSYVTVAIGCTGGHHRSVYLAERIGAALRDSLKNVQIRHRDLSS
- soluble on expression in E. coli: not soluble

Sequence: TDRVIMSIFTSDKLVDQSWGSLAYLAQLHVEKKFPVDIELYSEVDTIEKMEESLHASIDRKTELIIGHGREFSDIFTKVAPSYPTVRFVTIHGSATYENQTVYTFEKGKIELIAALAATMKSKTRKVALIDAYDGREDEPYFERGLEKYANDIEFFYYVVNSRHDGKQAKAVMDKLIKEGVDVVYSRGNAFNRDVIHYAKQHDIYVIGFLDDQSYLGEEHVLTSVLNDVTQAYVKI
- soluble on expression in E. coli: not soluble

Sequence: MSLARELRKGKSNAIGMLFGDPSSGFQSRLHHAALQACNDAGYFLTAGLFREEEDNWDEQLTQFLNRTSIEKMILVPPLCGSTALHDRLIEQGASFVLVSPSRAVAVAHAVCMDDRRAAREITEHLLGLGHRRIAHITGPSDHAATRLRREGFEDAMRAVGDGALRPDWIRPGLFRFKPALECARQILTGPDRPTAIFAANDEMAAAVCFAANSLGLRVPDDLSVVGFDDVAIATTMWPPLTTVAQPYAQMARESVRLLTEVGPPGDAGQAAEKVTIDHALKVRQSTAAEGHHHHHH
- soluble on expression in E. coli: soluble

Sequence: MAHHHHHHMFLRPHEINILMNEMKIIYEFKKEYYEIILNENNADDNVIDLFEKNTNKCNIEIKPYDDINSDLLDFDQFKMFNIDKDDIKKKNEDKKDEDRIKYILDKESYNNSIDKLNDNSCDESCYITDDELCKQINNPFDNTYNNKFVVKYKEYFEENSFIVKKGDIYGADFLLYITEQKYAHSLYAVYIIYKHYILRDLIRILRVSHSIKKKVILILWNELNCFNISDTLVYIKSYKYK
- soluble on expression in E. coli: soluble

Sequence: MSLGTSWQIGDVTIPNRVVVAPMAGVTNVAFRMICKAFGAGLVECEMISGQGIHYHNQRTLRMMAVNAQEHPMSIQIFGGTQETLVQAAQFVDQQTAADIIDINMGCPVNKVVNTDAGAKWLLDPQKVHDMVAAVVAAVKKPVTVKMRTGWDDHHIFAVDNALAAQRAGAAAVAMHGRTRKQMYQGQADWQILAEVAQHLTIPFMGNGDVRTPQDAQRMLNEVGADAVMIGRAVMGNPWLLQRINHYLATDELLAEPTPQEKTTIALEHLHKLCVAKGPVEGPRDFRNQVAYYLKGIPHTARTKVAITDATEEAVMHDLLVKFLERMTATIEGHHHHHH
- soluble on expression in E. coli: not soluble

Sequence: SSKSLKKLVEESREKNQPEVDMSDRGISNMLDVNGLFTLSHITQLVLSHNKLTMVPPNIAELKNLEVLNFFNNQIEELPTQISSLQKLKHLNLGMNRLNTLPRGFGSLPALEVLDLTYNNLSENSLPGNFFYLTTLRALYLSDNDFEILPPDIGKLTKLQILSLRDNDLISLPKEIGELTQLKELHIQGNRLTVLPPELGNLDLTGQKQVFKAENNPWVTPIADQFQLGVSHVFEYIRSETYKYLYGRHMQANPEPPKKNNDKSKKISRKPLAAKNR
- soluble on expression in E. coli: soluble

Sequence: MGSDKIHHHHHHMSAIPIIDIPFDKRHTCWFCGEPCNQHFEYHSQTHTPHPSLAVPACSECAKLAKQHPLTSIWDCRMAVKDALMRIYAKHLAIGINWTEAELAESDFSCNIFEGFKKSAWMMYQIARDRINAPGWPLRLEEIEIDDQGYSAGFEFDGVTYTSVHAAIHYYSTQFTLDPTFFADLVRLVGRARFNYALRLARIHIASAKEMKRQVLTDLEAELI
- soluble on expression in E. coli: not soluble
